In the supplement of paper PMC10567573:

B1: APBB1IP (parent)
chain: PPEPLSQVSMWDQRWQDHQPLLPI

Variants of: B1
Assay: protein stability index of a GFP-peptide fusion (GPS, HEK-293T) (PSI 1-6); higher = more stable
Settings: c terminus: a fixed tail appended
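Also: lentivirally expressed fusions sorted by FACS into six bins by GFP to DsRed ratio, PSI derived from sequencing read proportions per bin multiplied by bin number.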

Row | Variant | protein stability index
1 | PPEPLSQVSMWDIRWQDHQPLLPI [Q13I] | 2.72
2 | PPEPLSQVSMWDKRWQDHQPLLPI [Q13K] | 2.76
3 | PPEPLSQVSMWDLRWQDHQPLLPI [Q13L] | 2.16
4 | PPEPLSQVSMWDMRWQDHQPLLPI [Q13M] | 3.46
5 | PPEPLSQVSMWDNRWQDHQPLLPI [Q13N] | 3.5
6 | PPEPLSQVSMWDPRWQDHQPLLPI [Q13P] | 2.77
7 | PPEPLSQVSMWDRRWQDHQPLLPI [Q13R] | 2.6
8 | PPEPLSQVSMWDSRWQDHQPLLPI [Q13S] | 3.29
9 | PPEPLSQVSMWDTRWQDHQPLLPI [Q13T] | 2.78
10 | PPEPLSQVSMWDVRWQDHQPLLPI [Q13V] | 2.49
11 | PPEPLSQVSMWDWRWQDHQPLLPI [Q13W] | 2.91
12 | PPEPLSQVSMWDYRWQDHQPLLPI [Q13Y] | 2.51
13 | PPEPLSQVSMWDQAWQDHQPLLPI [R14A] | 2.75
14 | PPEPLSQVSMWDQCWQDHQPLLPI [R14C] | 2.79
15 | PPEPLSQVSMWDQDWQDHQPLLPI [R14D] | 3.59
16 | PPEPLSQVSMWDQEWQDHQPLLPI [R14E] | 3.74
17 | PPEPLSQVSMWDQFWQDHQPLLPI [R14F] | 2.86
18 | PPEPLSQVSMWDQGWQDHQPLLPI [R14G] | 3.98
19 | PPEPLSQVSMWDQHWQDHQPLLPI [R14H] | 3.19
20 | PPEPLSQVSMWDQIWQDHQPLLPI [R14I] | 3.14
21 | PPEPLSQVSMWDQKWQDHQPLLPI [R14K] | 3.06
22 | PPEPLSQVSMWDQLWQDHQPLLPI [R14L] | 3.01
23 | PPEPLSQVSMWDQMWQDHQPLLPI [R14M] | 2.68
24 | PPEPLSQVSMWDQNWQDHQPLLPI [R14N] | 3.86

Row | Variant | protein stability index
25 | PPEPLSQVSMWDQPWQDHQPLLPI [R14P] | 2.9
26 | PPEPLSQVSMWDQQWQDHQPLLPI [R14Q] | 2.88
27 | PPEPLSQVSMWDQSWQDHQPLLPI [R14S] | 3.84
28 | PPEPLSQVSMWDQTWQDHQPLLPI [R14T] | 3.39
29 | PPEPLSQVSMWDQVWQDHQPLLPI [R14V] | 2.92
30 | PPEPLSQVSMWDQWWQDHQPLLPI [R14W] | 3.29
31 | PPEPLSQVSMWDQYWQDHQPLLPI [R14Y] | 3.12
32 | PPEPLSQVSMWDQRAQDHQPLLPI [W15A] | 3.88
33 | PPEPLSQVSMWDQRCQDHQPLLPI [W15C] | 3.39
34 | PPEPLSQVSMWDQRDQDHQPLLPI [W15D] | 4.34
35 | PPEPLSQVSMWDQREQDHQPLLPI [W15E] | 4.03
36 | PPEPLSQVSMWDQRFQDHQPLLPI [W15F] | 3.62
37 | PPEPLSQVSMWDQRGQDHQPLLPI [W15G] | 3.62
38 | PPEPLSQVSMWDQRHQDHQPLLPI [W15H] | 4.17
39 | PPEPLSQVSMWDQRIQDHQPLLPI [W15I] | 3.65
40 | PPEPLSQVSMWDQRKQDHQPLLPI [W15K] | 4.05
41 | PPEPLSQVSMWDQRLQDHQPLLPI [W15L] | 3.28
42 | PPEPLSQVSMWDQRMQDHQPLLPI [W15M] | 4.02
43 | PPEPLSQVSMWDQRNQDHQPLLPI [W15N] | 3.7
44 | PPEPLSQVSMWDQRPQDHQPLLPI [W15P] | 3.9
45 | PPEPLSQVSMWDQRQQDHQPLLPI [W15Q] | 4.36
46 | PPEPLSQVSMWDQRRQDHQPLLPI [W15R] | 3.41
47 | PPEPLSQVSMWDQRSQDHQPLLPI [W15S] | 3.95
48 | PPEPLSQVSMWDQRTQDHQPLLPI [W15T] | 4.39

Row | Variant | protein stability index
49 | PPEPLSQVSMWDQRVQDHQPLLPI [W15V] | 3.93
50 | PPEPLSQVSMWDQRYQDHQPLLPI [W15Y] | 3.14
51 | PPEPLSQVSMWDQRWADHQPLLPI [Q16A] | 2.23
52 | PPEPLSQVSMWDQRWCDHQPLLPI [Q16C] | 2.6
53 | PPEPLSQVSMWDQRWDDHQPLLPI [Q16D] | 3.52
54 | PPEPLSQVSMWDQRWEDHQPLLPI [Q16E] | 2.92
55 | PPEPLSQVSMWDQRWFDHQPLLPI [Q16F] | 2.83
56 | PPEPLSQVSMWDQRWGDHQPLLPI [Q16G] | 2.98
57 | PPEPLSQVSMWDQRWHDHQPLLPI [Q16H] | 2.53
58 | PPEPLSQVSMWDQRWIDHQPLLPI [Q16I] | 2.72
59 | PPEPLSQVSMWDQRWKDHQPLLPI [Q16K] | 3.06
60 | PPEPLSQVSMWDQRWLDHQPLLPI [Q16L] | 2.46
61 | PPEPLSQVSMWDQRWMDHQPLLPI [Q16M] | 2.99
62 | PPEPLSQVSMWDQRWNDHQPLLPI [Q16N] | 2.85
63 | PPEPLSQVSMWDQRWPDHQPLLPI [Q16P] | 3.84
64 | PPEPLSQVSMWDQRWRDHQPLLPI [Q16R] | 2.68
65 | PPEPLSQVSMWDQRWSDHQPLLPI [Q16S] | 2.61
66 | PPEPLSQVSMWDQRWTDHQPLLPI [Q16T] | 2.46
67 | PPEPLSQVSMWDQRWVDHQPLLPI [Q16V] | 2.7
68 | PPEPLSQVSMWDQRWWDHQPLLPI [Q16W] | 2.73
69 | PPEPLSQVSMWDQRWYDHQPLLPI [Q16Y] | 2.98
70 | PPEPLSQVSMWDQRWQAHQPLLPI [D17A] | 2.5
71 | PPEPLSQVSMWDQRWQCHQPLLPI [D17C] | 2.6
72 | PPEPLSQVSMWDQRWQEHQPLLPI [D17E] | 2.97

Row | Variant | protein stability index
73 | PPEPLSQVSMWDQRWQFHQPLLPI [D17F] | 2.08
74 | PPEPLSQVSMWDQRWQGHQPLLPI [D17G] | 2.81
75 | PPEPLSQVSMWDQRWQHHQPLLPI [D17H] | 2.44
76 | PPEPLSQVSMWDQRWQIHQPLLPI [D17I] | 2.57
77 | PPEPLSQVSMWDQRWQKHQPLLPI [D17K] | 2.78
78 | PPEPLSQVSMWDQRWQLHQPLLPI [D17L] | 3.26
79 | PPEPLSQVSMWDQRWQMHQPLLPI [D17M] | 3.24
80 | PPEPLSQVSMWDQRWQNHQPLLPI [D17N] | 3.15
81 | PPEPLSQVSMWDQRWQPHQPLLPI [D17P] | 3.23
82 | PPEPLSQVSMWDQRWQQHQPLLPI [D17Q] | 2.57
83 | PPEPLSQVSMWDQRWQRHQPLLPI [D17R] | 2.91
84 | PPEPLSQVSMWDQRWQSHQPLLPI [D17S] | 2.53
85 | PPEPLSQVSMWDQRWQTHQPLLPI [D17T] | 2.57
86 | PPEPLSQVSMWDQRWQVHQPLLPI [D17V] | 2.54
87 | PPEPLSQVSMWDQRWQWHQPLLPI [D17W] | 2.79
88 | PPEPLSQVSMWDQRWQYHQPLLPI [D17Y] | 2.25
89 | PPEPLSQVSMWDQRWQDAQPLLPI [H18A] | 2.79
90 | PPEPLSQVSMWDQRWQDCQPLLPI [H18C] | 3.12
91 | PPEPLSQVSMWDQRWQDDQPLLPI [H18D] | 4.05
92 | PPEPLSQVSMWDQRWQDEQPLLPI [H18E] | 4.14
93 | PPEPLSQVSMWDQRWQDFQPLLPI [H18F] | 2.4
94 | PPEPLSQVSMWDQRWQDGQPLLPI [H18G] | 3.55
